Experimental findings from the DeepSol protein solubility set are described below.

The nature of the data set: soluble on expression in E. coli; label from the status in PepcDB or PDB records.
Consider “RMALDEVWDSSHFALQPGRAEDGPGASLALRILAARLPDSGVYVCHARNAHGHAQAGALLQVHQPPESPPADPDEAPAPVVEPLKCAPKTFWVNEGKHAKFRCYVMGKPEPEIEWHWEGRPLLPDRRRLMYRDRDGGFVLKVLYCQAKDRGLYVCAARNSAGQTLSAVQLHVKEPRLRFTRPLQDVEGREHGIAVLECKVPNSRIPTAWFREDQRLLPCRKYEQIEEGTVRRLIIHRLKADDDGIYLCEMRGRVRTVANVTVKGPILKRLPRKLDVLEGENAVLLVETLEAGVEGRWSRDGEELPVICQSSSGHMHALVLPGVTREDAGEVTFSLGNSRTTTLLRVKCVKHSPPGPPILAEMFKGHKNTVLLTWKPPEPAPETPFIYRLERQEVGSEDWIQCFSIEKAGAVEVPGDCVPSEGDYRFRICTVSGHGRSPHVVFHGSAHLVPTARLVAGLEDVQVYDGEDAVFSLDLSTIIQGTWFLNGEELKSNEPEGQVEPGALRYRIEQKGLQHRLILHAVKHQDSGALVGFSCPGVQDSAALTIQESPVHILSPQDKVSLTFTTSERVVLTCELSRVDFPATWYKDGQKVEESELLVVKMDGRKHRLILPEAKVQDSGEFECRTEGVSAFFGVTVQDPPVHIVDPREHVFVHAITSECVMLACEVDREDAPVRWYKDGQEVEESDFVVLENEGPHRRLVLPATQPSDGGEFQCVAGDECAYFTVTITDVSSWIVYPSGKVYVAAVRLERVVLTCELCRPWAEVRWTKDGEEVVESPALLLQKEDTVRRLVLPAVQLEDSGEYLCEIDDESASFTVTVTEPPVRIIYPRDEVTLIAVTLECVVLMCELSREDAPVRWYKDGLEVEESEALVLERDGPRCRLVLPAAQPEDGGEFVCDAGDDSAFFTVTVTEPPVQFLALETTPSPLCVAPGEPVVLSCELSRAGAPVVWSHNGRPVQEGEGLELHAEGPRRVLCIQAAGPAHAGLYTCQSGAAPGAPSLSFTVQVAEPPVRVVAPEAAQTRVRSTPGGDLELVVHLSGPGGPVRWYKDGERLASQGRVQLEQAGARQVLRVQGARSGDAGEYLCDAPQDSRIFLVSVEEPLLVKLVSDLTPLTVHEGDDATFRCEVSPPDADVTWLRNGAVVTPGPQRQSCCSYGGCRMCGQRKARTCVSKWRQAEWVQRGPCAGCEVGSPCPTTLACPWPRMGTSTASSSMVSYWPTRAPTAARATTIAPWPGSA”, for which the “soluble on expression in E. coli” value is listed as “soluble”. For the sequence “RMASVWQRLGFYASLLKRQLNGGPDVIKWERRVIPGCTRSIYSATGKWTKEYTLQTRKDVEKWWHQRIKEQASKISEADKSKPKFYVLSMFPYPSGKLHMGHVRVYTISDTIARFQKMRGMQVINPMGWDAFGLPAENAAVERNLHPQSWTQSNIKHMRKQLDRLGLCFSWDREITTCLPDYYKWTQYLFIKLYEAGLAYQKEALVNWDPVDQTVLANEQVDEHGCSWRSGAKVEQKYLRQWFIKTTAYAKAMQDALADLPEWYGIKGMQAHWIGDCVGCHLDFTLKVHGQATGEKLTAYTATPEAIYGTSHVAISPSHRLLHGHSSLKEALRMALVPGKDCLTPVMAVNMLTQQEVPVVILAKADLEGSLDSKIGIPSTSSEDTILAQTLGLAYSEVIETLPDGTERLSSSAEFTGMTRQDAFLALTQKARGKRVGGDVTSDKLKDWLISRQRYWGTPIPIVHCPVCGPTPVPLEDLPVTLPNIASFTGKGGPPLAMASEWVNCSCPRCKGAAKRETDTMDTFVDSAWYYFRYTDPHNPHSPFNTAVADYWMPVDLYIGGKEHAVMHLFYARFFSHFCHDQKMVKHREPFHKLLAQGLIKGQTFRLPSGQYLQREEVDLTGSVPVHAKTKEKLEVTWEKMSKSKHNGVDPEEVVEQYGIDTIRLYILFAAPPEKDILWDVKTDALPGVLRWQQRLWTLTTRFIEARASGKSPQPQLLSNKEKAEARKLWEYKNSVISQVTTHFTEDFSLNSAISQLMGLSNALSQASQSVILHSPEFEDALCALMVMAAPLAPHVTSEIWAGLALVPRKLCAHYTWDASVLLQAWPAVDPEFLQQPEVVQMAVLINNKACGKIPVPQQVARDQDKVHEFVLQSELGVRLLQGRSIKKSFLSPRTALINFLVQD”, the “soluble on expression in E. coli” value is listed as “soluble”.

“RPDKVKLALDKTSYRAGDTLKVTITPPHPGKGLLLVESDKPLYVQAIDANPSTTLEIPVTADWERHDVYVTALVFRGGSASNNTTPARAVGEAYVPMQRKERRVAVGLVVPKQVRPAQSLPVTVSVPELAGKQAHVTISAVDAGILNITGF”: the “soluble on expression in E. coli” value is given as “not soluble”. As for “RQAVGPGGVPAGAGGSGAVLGPEAAGPEREEPECGSSGGGMSRPPPTGKMPGAPETAPGDGAGASRQRKLEALIRDPRSPINVESLLDGLNSLVLDLDFPALRKNKNIDNFLNRYEKIVKKIRGLQMKAEDYDVVKVIGRGAFGEVQLVRHKASQKVYAMKLLSKFEMIKRSDSAFFWEERDIMAFANSPWVVQLFYAFQDDRYLYMVMEYMPGGDLVNLMSNYDVPEKWAKFYTAEVVLALDAIHSMGLIHRDVKPDNMLLDKHGHLKLADFGTCMKMDETGMVHCDTAVGTPDYISPEVLKSQGGDGFYGRECDWWSVGVFLYEMLVGDTPFYADSLVGTYSKIMDHKNSLCFPEDAEISKHAKNLICAFLTDREVRLGRNGVEEIRQHPFFKNDQWHWDNIRETAAPVVPELSSDIDSSNFDDIEDDKGDVETFPIPKAFVGNQLPFIGFTYYRENLLLSDSPSCRENDSIQSRKNEESQEIQKKLYTLEEHLSNEMQAKEELEQKCKSVNTRLEKTAKELEEEITLRKSVESALRQLEREKALLQHKNAEYQRKADHEADKKRNLENDVNSLKDQLEDLKKRNQNSQISTEKVNQLQRQLDETNALLRTESDTAARLRKTQAESSKQIQQLESNNRDLQDKNCLLETAKLKLEKEFINLQSALESERRDRTHGSEIINDLQGRICGLEEDLKNGKILLAKVELEKRQLQERFTDLEKEKSNMEIDMTYQLKVIQQSLEQEEAEHKATKARLADKNKIYESIEEAKSEAMKEMEKKLLEERTLKQKVENLLLEAEKRCSLLDCDLKQSQQKINELLKQKDVLNEDVRNLTLKIEQETQKRCLTQNDLKMQTQQVNTLKMSEKQLKQENNHLMEMKMNLEKQNAELRKERQDADGQMKELQDQLEAEQYFSTLYKTQVRELKEECEEKTKLGKELQQKKQELQDERDSLAAQLEITLTKADSEQLARSIAEEQYSDLEKEKIMKELEIKEMMARHKQELTEKDATIASLEETNRTLTSDVANLANEKEELNNKLKDVQEQLSRLKDEEISAAAIKAQFEKQLLTERTLKTQAVNKLAEIMNRKEPVKRGNDTDVRRKEKENRKLHMELKSEREKLTQQMIKYQKELNEMQAQIAEESQIRIELQMTLDSKDSDIEQLRSQLQALHIGLDSSSIGSGPGDAEADDGFPESRLEGWLSLPVRNNTKKFGWVKKYVIVSSKKILFYDSEQDKEQSNPYMVLDIDKLFHVRPVTQTDVYRADAKEIPRIFQILYANEGESKKEQEFPVEPVGEKSNYICHKGHEFIPTLYHFPTNCEACMKPLWHMFKPPPALECRRCHIKCHKDHMDKKEEIIAPCKVYYDISTAKNLLLLANSTEEQQKWVSRLVKKIPKKPPAPDPFARSSPRTSMKIQQNQSIRRPSRQLAPNKPS”, the “soluble on expression in E. coli” value is recorded as “soluble”. For “RQLKVGQLVLSATPLPSLDEQARSLALVNLVRRKGIELLPWNPELRQWQARVDMLRQLDIQNGQAESKWPDLSDTSLLETLEK”, the “soluble on expression in E. coli” value is on record as “not soluble”.

As for “RRHKNKNPFHFNSKRFQTLFKNQYGHVRVLQRFNKRSQQLQNLRDYRILEFNSKPNTLLLPHHADADYLIVILNGTAILTLVNNDDRDSYNLQSGDALRVPAGTTYYVVNPDNDENLRMITLAIPVNKPGRFESFFLSSTQAQQSYLQGFSKNILEASYDTKFEEINKVLFGREEGQQQGEERLQESVIVEISKKQIRELSKHAKSSSRKTISSEDKPFNLRSRDPIYSNKLGKLFEITPEKNPQLRDLDVFLSVVDMNEGALFLPHFNSKAIVVLVINEGEANIELVGIKEQQQRQQQEEQPLEVRKYRAELSEQDIFVIPAGYPVVVNATSDLNFFAFGINAENNQRNFLAGSKDNVISQIPSQVQELAFPGSAKDIENLIKSQSESYFVDAQPQQKEEGNKGRKGPLSSILRAFY”, the “soluble on expression in E. coli” value is given as “soluble”. As to “RSSLDLQLKNARNLAGLIIHDIDGYMMKGDSSEVDRFISAVKSKNFIMDLRVFDEQAKEVSPTPSQTPNAKIQQAIAAGRTLEFKETLDGKRTLSLVLPFPNEQRCQSCHDAGAAYLGGLLVTTSIEEGYEGARH”, the “soluble on expression in E. coli” value was “soluble”. As to “RTGFSVGAGVEYNFSRHWAIQSGLMITSKGATAEYEGYSPLSSSTDPISYKAKISPIYLDIPILAAFKIDISNHVKFAINIGPYLSVGMGGKYELTNTGGHKNESHNPFKSYSSTAEMKDKDALLKRFDIGVQGGIGFEIWKHYLINASFQHGFMDPIKGGTLYAGDTEKHYPIGGILTVGYRF”, the “soluble on expression in E. coli” value is on record as “not soluble”. In the case of “RVMLRQTQYLNEAIKLMASKNLSVPFGMDCKDEYGDVARELEKTRRQLHDVIQMQINASDELATLTEVMTLSMSETKESA”, the “soluble on expression in E. coli” value is listed as “not soluble”. Next, “RYPTNNFGNCTGCSATFSVLKKRRSCSNCGNSFCSRCCSFKVPKSSMGATAPEAQRETVFVCASCNQTLSK”: “soluble”; “SAAANPWDPASAPNGAGLVLGHFIASGMVNQEMLNMSKKTVSCFVNFTRLQQITNIQAEIYQKNLEIELLKLEKDTADVVHPFFLAQKCHTLQSMNNHLEAVLKEKRSLRQRLLKPMCQENLPIEAVYHRYMVHLLELAVTFIERLETHLETIRNIPHLAANLKKMNQALAKMDILVTETEELAENILKWRKQQNEVSSCIPKILAEESYLYKHDIIMPPLPFTSKVHVQTINAK”: “soluble”; “SAAQKINEGLEHLAKAEKYLKTGFLKWKPDYDSAASEYGKAAVAFKNAKQFEQAKDACLREAVAHENNRALFHAAKAYEQAGMMLKEMQKLPEAVQLIEKASMMYLENGTPDTAAMALERAGKLIENVDPEKAVQLYQQTANVFENDERLRQAVELLGKASRLLVRGRRFDEAALSIQKEKNIYKEIENYPTCYKKTIAQVLVHLHRNDYVAAERCVRESYSIPGFNGSEDCAALEQLLEGYDQQDQDQVSDVCNSPLFKYMDNDYAKLGLSLVVPGGGIKKKSPATPQAKPDGVTATAADEEEDEYSGGLC”: “soluble”. Next, “SAHSKTRTNDGKITYPPGVKEISDKISKEEMVRRLKMVVKTFMDMDQDSEEEKELYLNLALHLASDFFLKHPDKDVRLLVACCLADIFRIYAPEAPYTSPDKLKASTDLNNSKIDRYFDLSF”: “soluble”; “SAQDVDECSLGANPCEHAGKCINTLGSFECQCLQGYTGPRCEIDVNECVSNPCQNDATCLDQIGEFQCICMPGYEGVHCEVNTDECASSPCLHNGRCLDKINEFQCECPTGFTGHLCQVDLHHILDAQKMVWNHR”: “soluble”.

In the case of “SAQKEEAAVATEAASQNGEDLENLDDPEKLKELIELPPFEIVTGERLPANFFKFQFRNVEYSSGRNKTFLCYVVEAQGKGGQVQASRGYLEDEHAAAHAEEAFFNTILPAFDPALRYNVTWYVSSSPCAACADRIIKTLSKTKNLRLLILVGRLFMWEEPEIQAALKKLKEAGCKLRIMKPQDFEYVWQNFVEQEEGESKAFQPWEDIQENFLYYEEKLADILK”, the “soluble on expression in E. coli” value is reported as “soluble”. Regarding “SASASTQPAALSAEQAKVVLAEVIQAFSAPENAVRMDEARDNACNDMGKMLQFVLPVATQIQQEVIKAYGFSCDGEGVLKFARLVKSYEAQDPEIASLSGKLKALFLPPMTLPPHGPAAGGSVAAS”, the “soluble on expression in E. coli” value is “soluble”.

Take “SASAVFEGTSLVNMFVRGCWVNGIRRLIVSRRGDEEEFFEIRTEWSDRSVLYLHRSFADLGRLCKRLRDAFPEDRSELARTPLRQGLLAIKGAHDIETRLNEVEKLLETVISMPCKYSRSEVVLTFFERSPLDQVLKNDNVHKIQPSFQSPVKISEAKEGTGALRTGVVDGCEPPGGCWELSVGLLEEHQVFLTAERIFSPRKAFLRNHEVQWILFGKHRDHSH”: the “soluble on expression in E. coli” value is “soluble”.
